In patent US7807396:

What was measured:
[1] = biological target: Aβ added to the cultures at 10 µM in a non-fibrillar state; assay: cell-based or functional assay
[2] = biological target: human β-endorphin1-31 (human) (UniProt P01189); assay: cell-based or functional assay
[3] = biological target: amyloid beta peptide Aβ1-40; assay: cell-based or functional assay
dynorphin B-9 = dynorphin B-9 (UniProt P01213)

Chain of human β-endorphin1-31 (human) (P01189 237-267 limits assumed): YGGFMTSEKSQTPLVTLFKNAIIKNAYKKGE

**Q.** “human neprilysin expressed from a lentiviral construct in primary neuronal cultures of neprilysin deficient mice (from UniProt P08473 2-750) (enzyme)” was tested. Which survival of neuronal cells subjected to Aβ induced neurotoxicity (% increase in cell survival) [1] did it give?
**A.** The survival of neuronal cells subjected to Aβ induced neurotoxicity (% increase in cell survival) was 75.

**Q.** Which specific activity of enzyme purified from a thymoma cell line, EL-4 [2] does the source give for “insulysin purified from a thymoma cell line, EL-4 (from UniProt Q9JHR7 42-1019) (enzyme)” here?
**A.** Its specific activity of enzyme purified from a thymoma cell line, EL-4 is 3.3 µmols/min/mg.

**Q.** How did the inhibition of deposition of 125I-Aβ1-40 onto pre-deposited Aβ1-40 (% inhibition with 50 ng of insulysin) [3] turn out when “recombinant rat insulysin with an N-terminal His6 affinity tag, expressed in baculovirus-infected Sf9 cells (from UniProt P35559 42-1019) (enzyme)” was run?
**A.** Its inhibition of deposition of 125I-Aβ1-40 onto pre-deposited Aβ1-40 (% inhibition with 50 ng of insulysin) is 50.

**Q.** With trypsin as the substance, how does the “trypsin hydrolysis of the fluorogenic peptide Abz-GGFLRKHGQ-EDDnp (SEQ ID NO: 14)” value (dynorphin B-9) read?
**A.** Its value is “trypsin hydrolysis of the same peptide showed inhibition, not activation, by dynorphin B-9”.
